Measured values taken from publication PMC5350311.

Columns and labels:
[1] = target: protein phosphatase 1 (rabbit) (UniProt P62139)
[2] = target: protein phosphatase 1 (rabbit) (UniProt P62139); remark: listed apart in the source

UniProt P62139, sequence (P62139 whole entry): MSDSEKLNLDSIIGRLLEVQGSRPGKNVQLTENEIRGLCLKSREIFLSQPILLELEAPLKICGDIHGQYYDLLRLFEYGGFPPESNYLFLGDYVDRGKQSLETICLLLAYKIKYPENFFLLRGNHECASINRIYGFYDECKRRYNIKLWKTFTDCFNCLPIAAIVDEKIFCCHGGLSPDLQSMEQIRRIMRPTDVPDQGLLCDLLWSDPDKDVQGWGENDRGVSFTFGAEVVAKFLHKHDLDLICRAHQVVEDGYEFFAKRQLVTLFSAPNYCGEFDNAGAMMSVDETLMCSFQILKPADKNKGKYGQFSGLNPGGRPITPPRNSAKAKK

glutathione conjugate of MCLR (peptide)
IC50 of inhibition of PP1 activity (colorimetric protein phosphatase inhibition assay, p-nitrophenyl disodium orthophosphate, 25.0°C, pH 7.4) [1]: 86.6 μg/L
IC50 of inhibition of PP1 activity (inhibition curves, colorimetric protein phosphatase inhibition assay) [2]: 86.6 µM

glutathione conjugate of MCRR (peptide)
IC50 of inhibition of PP1 activity (colorimetric protein phosphatase inhibition assay, p-nitrophenyl disodium orthophosphate, 25.0°C, pH 7.4) [1]: 98.7 μg/L
IC50 of inhibition of PP1 activity (inhibition curves, colorimetric protein phosphatase inhibition assay) [2]: 98.7 µM
